These sequences were tested on Fer (mouse) (assay: phosphorylation enrichment, bacterial display (enrichment ratio); higher = better substrate or ligand; peptides without Tyr show the background).
TFEFRYLEDRD [CNOT3_Y746_YF] was tested, and the phosphorylation enrichment was 0.606.
RWHEGYRQTPK [CD44_Y412] was tested, and the phosphorylation enrichment was 0.367.
In the case of YPKVRYHWLVL [APTX_Y214_A212V], the phosphorylation enrichment is reported as 0.506.
DTKPVYQNLRQ [BOD1_Y82_A81V] was tested, and the phosphorylation enrichment was 0.507.
DTQNSYWCATS [TSC1_Y304_G305W] was tested, and the phosphorylation enrichment was 0.405.
Sequence GLDGSYLLRDS [SH2D1A_Y29] has a phosphorylation enrichment of 0.39.
In the case of ESVNTYLQTSP [NAT1_Y208_M205V], the phosphorylation enrichment is reported as 0.49.
In the case of PSAEGYQDVRD [ABLIM1_Y439], the phosphorylation enrichment is reported as 0.634.
For MSSHHCDFKKF [ZNF445_Y428_Y428C_YF], the phosphorylation enrichment was 0.43.
In the case of NLTVNYKKNLI [SQOR_Y259], the phosphorylation enrichment is reported as 0.427.
Work on SPPEVYAIMRG [NTRK1_Y757_C752S] yielded a phosphorylation enrichment of 0.525.
Work on EVEFQYPFRLH [SYP_Y73_E72Q] yielded a phosphorylation enrichment of 0.524.
In the case of FHKALYTVRSY [PDE6C_Y266], the phosphorylation enrichment is reported as 0.471.
With DLQDEYDFKRK [STAT1_Y170_C174R] the phosphorylation enrichment was 0.463.
IVTLKYPIEHG [ACTB_Y69_L65V] gave a phosphorylation enrichment of 0.489.
EILLSYPRTGF [TGM1_Y365_L366P_YF] was tested, and the phosphorylation enrichment was 0.397.
For EIASHYRHLLR [ZBTB46_Y14_T11A], the phosphorylation enrichment was 0.516.
DRLASYLDKVR [KRT10_Y160] was tested, and the phosphorylation enrichment was 0.336.
With LLSVAYQNVVG [YWHAG_Y49_K50Q] the phosphorylation enrichment was 0.83.
With MALDIYRASYY [ALK_Y1278_R1275L] the phosphorylation enrichment was 0.434.
Sequence KIIRWYVSSEG [ANK2_Y3907_R3906W] has a phosphorylation enrichment of 0.543.
LEAVSYSSPFA [RNLS_Y190_R193P_YF] was tested, and the phosphorylation enrichment was 0.396.
Sequence AAVDTVCRHNF [HLA-DRB1_Y107_Y107V_YF] has a phosphorylation enrichment of 0.54.
With RRIHSYRGYLW [VHL_Y112_H115Y] the phosphorylation enrichment was 0.676.
With LLDGEYFTLQI [TP53_Y327_P322L] the phosphorylation enrichment was 1.99.
With RVNSAYQDKVS [ACAN_Y100] the phosphorylation enrichment was 0.437.
For LGGAMYFLEAE [PKHD1_Y452_YF], the phosphorylation enrichment was 0.623.
Work on NPSFNYEIVNR [DYNC1H1_Y3379_YF] yielded a phosphorylation enrichment of 0.514.
Sequence HFEFKYVINAI [MAOA_Y268_C266F_YF] has a phosphorylation enrichment of 0.829.
With QDGYSYLSRQM [LDLR_Y847_P848L] the phosphorylation enrichment was 0.562.
Work on TEQDPYNSIVR [MMUT_Y364_N366S] yielded a phosphorylation enrichment of 0.488.
With YTHSDYQYGQR [PKP2_Y166_S169G] the phosphorylation enrichment was 0.572.
With LITILYIGFLG [KCNQ1_Y267_T265I] the phosphorylation enrichment was 0.895.

Each sequence was assayed against EPHB1 (UniProt P54762) in the same assay as above.
Sequence of EPHB1 (P54762 whole entry, looked up): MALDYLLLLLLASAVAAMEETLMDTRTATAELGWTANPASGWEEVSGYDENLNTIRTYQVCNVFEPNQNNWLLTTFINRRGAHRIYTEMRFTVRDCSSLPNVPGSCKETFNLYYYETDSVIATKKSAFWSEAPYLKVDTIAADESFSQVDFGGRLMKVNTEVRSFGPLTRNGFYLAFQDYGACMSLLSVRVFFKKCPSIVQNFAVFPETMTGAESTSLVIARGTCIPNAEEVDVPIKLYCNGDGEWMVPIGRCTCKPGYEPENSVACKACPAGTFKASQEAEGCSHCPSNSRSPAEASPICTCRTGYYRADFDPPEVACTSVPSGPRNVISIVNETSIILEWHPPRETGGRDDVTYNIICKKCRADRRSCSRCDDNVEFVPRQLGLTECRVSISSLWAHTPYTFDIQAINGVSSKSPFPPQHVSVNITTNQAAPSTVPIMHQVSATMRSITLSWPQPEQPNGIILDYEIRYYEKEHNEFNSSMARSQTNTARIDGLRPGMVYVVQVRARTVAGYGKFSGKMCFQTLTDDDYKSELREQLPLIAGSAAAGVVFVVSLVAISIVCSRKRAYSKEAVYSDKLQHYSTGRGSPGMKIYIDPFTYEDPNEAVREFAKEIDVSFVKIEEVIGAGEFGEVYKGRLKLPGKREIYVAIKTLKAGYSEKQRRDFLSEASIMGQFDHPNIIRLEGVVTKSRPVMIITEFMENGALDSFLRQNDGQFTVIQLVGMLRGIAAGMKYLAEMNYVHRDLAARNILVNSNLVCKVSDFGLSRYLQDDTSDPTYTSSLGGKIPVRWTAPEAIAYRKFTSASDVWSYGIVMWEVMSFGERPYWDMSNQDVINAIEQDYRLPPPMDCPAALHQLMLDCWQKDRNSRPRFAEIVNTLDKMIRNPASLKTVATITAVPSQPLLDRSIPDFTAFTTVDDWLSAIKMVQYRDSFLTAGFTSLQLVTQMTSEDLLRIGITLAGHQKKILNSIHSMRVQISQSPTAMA
For TFEFRYLEDRD [CNOT3_Y746_YF], the phosphorylation enrichment was 0.676.
RWHEGYRQTPK [CD44_Y412] gave a phosphorylation enrichment of 0.407.
With YPKVRYHWLVL [APTX_Y214_A212V] the phosphorylation enrichment was 0.652.
DTKPVYQNLRQ [BOD1_Y82_A81V] was tested, and the phosphorylation enrichment was 0.549.
With DTQNSYWCATS [TSC1_Y304_G305W] the phosphorylation enrichment was 0.535.
With GLDGSYLLRDS [SH2D1A_Y29] the phosphorylation enrichment was 0.371.
With ESVNTYLQTSP [NAT1_Y208_M205V] the phosphorylation enrichment was 0.538.
In the case of PSAEGYQDVRD [ABLIM1_Y439], the phosphorylation enrichment is reported as 0.656.
MSSHHCDFKKF [ZNF445_Y428_Y428C_YF] was tested, and the phosphorylation enrichment was 0.401.
Work on NLTVNYKKNLI [SQOR_Y259] yielded a phosphorylation enrichment of 0.486.
With SPPEVYAIMRG [NTRK1_Y757_C752S] the phosphorylation enrichment was 1.12.
EVEFQYPFRLH [SYP_Y73_E72Q] showed a phosphorylation enrichment of 0.64.
Work on FHKALYTVRSY [PDE6C_Y266] yielded a phosphorylation enrichment of 0.534.
In the case of DLQDEYDFKRK [STAT1_Y170_C174R], the phosphorylation enrichment is reported as 0.495.
For IVTLKYPIEHG [ACTB_Y69_L65V], the phosphorylation enrichment was 0.434.
EILLSYPRTGF [TGM1_Y365_L366P_YF] was tested, and the phosphorylation enrichment was 0.562.
Sequence EIASHYRHLLR [ZBTB46_Y14_T11A] has a phosphorylation enrichment of 0.357.
DRLASYLDKVR [KRT10_Y160] gave a phosphorylation enrichment of 0.4.
Work on LLSVAYQNVVG [YWHAG_Y49_K50Q] yielded a phosphorylation enrichment of 1.19.
In the case of MALDIYRASYY [ALK_Y1278_R1275L], the phosphorylation enrichment is reported as 0.594.
With KIIRWYVSSEG [ANK2_Y3907_R3906W] the phosphorylation enrichment was 0.69.
With LEAVSYSSPFA [RNLS_Y190_R193P_YF] the phosphorylation enrichment was 0.736.
With AAVDTVCRHNF [HLA-DRB1_Y107_Y107V_YF] the phosphorylation enrichment was 0.521.
With RRIHSYRGYLW [VHL_Y112_H115Y] the phosphorylation enrichment was 0.614.
Work on LLDGEYFTLQI [TP53_Y327_P322L] yielded a phosphorylation enrichment of 1.95.
For RVNSAYQDKVS [ACAN_Y100], the phosphorylation enrichment was 0.642.
For LGGAMYFLEAE [PKHD1_Y452_YF], the phosphorylation enrichment was 0.999.
NPSFNYEIVNR [DYNC1H1_Y3379_YF] was tested, and the phosphorylation enrichment was 2.91.
In the case of HFEFKYVINAI [MAOA_Y268_C266F_YF], the phosphorylation enrichment is reported as 0.686.
Work on QDGYSYLSRQM [LDLR_Y847_P848L] yielded a phosphorylation enrichment of 0.517.
Sequence TEQDPYNSIVR [MMUT_Y364_N366S] has a phosphorylation enrichment of 0.496.
Sequence YTHSDYQYGQR [PKP2_Y166_S169G] has a phosphorylation enrichment of 0.436.
LITILYIGFLG [KCNQ1_Y267_T265I] showed a phosphorylation enrichment of 0.835.

These sequences were tested on AncSZ in the same assay as above.
TFEFRYLEDRD [CNOT3_Y746_YF] showed a phosphorylation enrichment of 1.35.
RWHEGYRQTPK [CD44_Y412] was tested, and the phosphorylation enrichment was 0.66.
With YPKVRYHWLVL [APTX_Y214_A212V] the phosphorylation enrichment was 1.
In the case of DTKPVYQNLRQ [BOD1_Y82_A81V], the phosphorylation enrichment is reported as 0.596.
DTQNSYWCATS [TSC1_Y304_G305W] gave a phosphorylation enrichment of 0.952.
Work on GLDGSYLLRDS [SH2D1A_Y29] yielded a phosphorylation enrichment of 0.574.
Sequence ESVNTYLQTSP [NAT1_Y208_M205V] has a phosphorylation enrichment of 0.874.
PSAEGYQDVRD [ABLIM1_Y439] was tested, and the phosphorylation enrichment was 1.15.
MSSHHCDFKKF [ZNF445_Y428_Y428C_YF] gave a phosphorylation enrichment of 0.47.
Sequence NLTVNYKKNLI [SQOR_Y259] has a phosphorylation enrichment of 0.669.
SPPEVYAIMRG [NTRK1_Y757_C752S] was tested, and the phosphorylation enrichment was 0.99.
EVEFQYPFRLH [SYP_Y73_E72Q] showed a phosphorylation enrichment of 1.03.
In the case of FHKALYTVRSY [PDE6C_Y266], the phosphorylation enrichment is reported as 0.814.
Work on DLQDEYDFKRK [STAT1_Y170_C174R] yielded a phosphorylation enrichment of 0.992.
Work on IVTLKYPIEHG [ACTB_Y69_L65V] yielded a phosphorylation enrichment of 0.698.
Work on EILLSYPRTGF [TGM1_Y365_L366P_YF] yielded a phosphorylation enrichment of 0.695.
EIASHYRHLLR [ZBTB46_Y14_T11A] was tested, and the phosphorylation enrichment was 0.597.
With DRLASYLDKVR [KRT10_Y160] the phosphorylation enrichment was 0.619.
Work on LLSVAYQNVVG [YWHAG_Y49_K50Q] yielded a phosphorylation enrichment of 1.23.
With MALDIYRASYY [ALK_Y1278_R1275L] the phosphorylation enrichment was 0.874.
KIIRWYVSSEG [ANK2_Y3907_R3906W] was tested, and the phosphorylation enrichment was 1.31.
For LEAVSYSSPFA [RNLS_Y190_R193P_YF], the phosphorylation enrichment was 1.23.
Work on AAVDTVCRHNF [HLA-DRB1_Y107_Y107V_YF] yielded a phosphorylation enrichment of 0.765.
RRIHSYRGYLW [VHL_Y112_H115Y] gave a phosphorylation enrichment of 0.646.
For LLDGEYFTLQI [TP53_Y327_P322L], the phosphorylation enrichment was 5.89.
In the case of RVNSAYQDKVS [ACAN_Y100], the phosphorylation enrichment is reported as 0.849.
For LGGAMYFLEAE [PKHD1_Y452_YF], the phosphorylation enrichment was 1.53.
Work on NPSFNYEIVNR [DYNC1H1_Y3379_YF] yielded a phosphorylation enrichment of 1.15.
In the case of HFEFKYVINAI [MAOA_Y268_C266F_YF], the phosphorylation enrichment is reported as 1.66.
QDGYSYLSRQM [LDLR_Y847_P848L] gave a phosphorylation enrichment of 0.71.
For TEQDPYNSIVR [MMUT_Y364_N366S], the phosphorylation enrichment was 1.03.
With YTHSDYQYGQR [PKP2_Y166_S169G] the phosphorylation enrichment was 0.867.
Work on LITILYIGFLG [KCNQ1_Y267_T265I] yielded a phosphorylation enrichment of 2.28.

These sequences were tested on c-Src in the same assay as above.
TFEFRYLEDRD [CNOT3_Y746_YF] showed a phosphorylation enrichment of 0.591.
With RWHEGYRQTPK [CD44_Y412] the phosphorylation enrichment was 0.361.
YPKVRYHWLVL [APTX_Y214_A212V] showed a phosphorylation enrichment of 0.474.
With DTKPVYQNLRQ [BOD1_Y82_A81V] the phosphorylation enrichment was 1.07.
Sequence DTQNSYWCATS [TSC1_Y304_G305W] has a phosphorylation enrichment of 0.52.
GLDGSYLLRDS [SH2D1A_Y29] gave a phosphorylation enrichment of 0.397.
For ESVNTYLQTSP [NAT1_Y208_M205V], the phosphorylation enrichment was 0.589.
Work on PSAEGYQDVRD [ABLIM1_Y439] yielded a phosphorylation enrichment of 0.492.
For MSSHHCDFKKF [ZNF445_Y428_Y428C_YF], the phosphorylation enrichment was 0.415.
With NLTVNYKKNLI [SQOR_Y259] the phosphorylation enrichment was 0.43.
SPPEVYAIMRG [NTRK1_Y757_C752S] was tested, and the phosphorylation enrichment was 2.64.
In the case of EVEFQYPFRLH [SYP_Y73_E72Q], the phosphorylation enrichment is reported as 0.506.
With FHKALYTVRSY [PDE6C_Y266] the phosphorylation enrichment was 0.582.
DLQDEYDFKRK [STAT1_Y170_C174R] was tested, and the phosphorylation enrichment was 0.476.
For IVTLKYPIEHG [ACTB_Y69_L65V], the phosphorylation enrichment was 0.422.
EILLSYPRTGF [TGM1_Y365_L366P_YF] was tested, and the phosphorylation enrichment was 0.356.
With EIASHYRHLLR [ZBTB46_Y14_T11A] the phosphorylation enrichment was 0.421.
With DRLASYLDKVR [KRT10_Y160] the phosphorylation enrichment was 0.345.
With LLSVAYQNVVG [YWHAG_Y49_K50Q] the phosphorylation enrichment was 0.443.
MALDIYRASYY [ALK_Y1278_R1275L] showed a phosphorylation enrichment of 1.76.
For KIIRWYVSSEG [ANK2_Y3907_R3906W], the phosphorylation enrichment was 0.455.
Work on LEAVSYSSPFA [RNLS_Y190_R193P_YF] yielded a phosphorylation enrichment of 0.652.
In the case of AAVDTVCRHNF [HLA-DRB1_Y107_Y107V_YF], the phosphorylation enrichment is reported as 0.491.
In the case of RRIHSYRGYLW [VHL_Y112_H115Y], the phosphorylation enrichment is reported as 0.517.
LLDGEYFTLQI [TP53_Y327_P322L] was tested, and the phosphorylation enrichment was 7.23.
Work on RVNSAYQDKVS [ACAN_Y100] yielded a phosphorylation enrichment of 0.484.
Sequence LGGAMYFLEAE [PKHD1_Y452_YF] has a phosphorylation enrichment of 1.01.
Sequence NPSFNYEIVNR [DYNC1H1_Y3379_YF] has a phosphorylation enrichment of 0.388.
Sequence HFEFKYVINAI [MAOA_Y268_C266F_YF] has a phosphorylation enrichment of 0.576.
QDGYSYLSRQM [LDLR_Y847_P848L] showed a phosphorylation enrichment of 0.464.
TEQDPYNSIVR [MMUT_Y364_N366S] showed a phosphorylation enrichment of 0.593.
In the case of YTHSDYQYGQR [PKP2_Y166_S169G], the phosphorylation enrichment is reported as 0.439.
With LITILYIGFLG [KCNQ1_Y267_T265I] the phosphorylation enrichment was 1.24.

From the supplement of paper PMC10065799, “High-throughput profiling of sequence recognition by tyrosine kinases and SH2 domains using bacterial peptide display” (eLife, 2023)
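Also: 11-residue human phosphosite peptides and single-mutation variants displayed on the E. coli surface, counted by deep sequencing, each peptide's frequency after selection divided by its frequency in the unselected input library; frequency after pTyr selection over input frequency; kinase dosed for 20-30% of maximal phosphorylation in three min.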
